From US8895526B2, “Identification of RNAI targets and use of RNAI for rational therapy of chemotherapy-resistant leukemia and other cancers” (Cold Spring Harbor Laboratory, priority 2009, dated 2014)

B1: Myc.1888: shRNA, SEQ ID NO: 146 (nucleic acid)
chain: TGCTGTTGACAGTGAGCGAGAAACGACGAGAACAGTTGAATAGTGAAGCCACAGATGTATTCAACTGTTCTCGTCGTTTCCTGCCTACTGCCTCGGA
B2: Luciferase.1309: neutral control shRNA, SEQ ID NO: 202 (nucleic acid)
chain: TGCTGTTGACAGTGAGCGCCCGCCTGAAGTCTCTGATTAATAGTGAAGCCACAGATGTATTAATCAGAGACTTCAGGCGGTTGCCTACTGCCTCGGA
B3: Kit.221: neutral control shRNA, SEQ ID NO: 196 (nucleic acid)
chain: TGCTGTTGACAGTGAGCGCCAGATGGACTTTCAAGACCTATAGTGAAGCCACAGATGTATAGGTCTTGAAAGTCCATCTGATGCCTACTGCCTCGGA
B4: Lin28.2270: neutral control shRNA, SEQ ID NO: 200 (nucleic acid)
chain: TGCTGTTGACAGTGAGCGCAACGGGACAAATGCAATAGAATAGTGAAGCCACAGATGTATTCTATTGCATTTGTCCCGTTTTGCCTACTGCCTCGGA
B5: Bcl2.906: shRNA, SEQ ID NO: 98 (nucleic acid)
chain: TGCTGTTGACAGTGAGCGCGCACAGGAATTTTGTTTAATATAGTGAAGCCACAGATGTATATTAAACAAAATTCCTGTGCATGCCTACTGCCTCGGA
B6: Lin28.2430: neutral control shRNA, SEQ ID NO: 201 (nucleic acid)
chain: TGCTGTTGACAGTGAGCGATGGCCTAGTTGTGTAAATATATAGTGAAGCCACAGATGTATATATTTACACAACTAGGCCACTGCCTACTGCCTCGGA
B7: Myc.2105: shRNA, SEQ ID NO: 148 (nucleic acid)
chain: TGCTGTTGACAGTGAGCGCCTGCCTCAAACTTAAATAGTATAGTGAAGCCACAGATGTATACTATTTAAGTTTGAGGCAGTTGCCTACTGCCTCGGA
B8: Mn1.1403: neutral control shRNA, SEQ ID NO: 205 (nucleic acid)
chain: TGCTGTTGACAGTGAGCGCAACGGTACCCTAGACAACCAATAGTGAAGCCACAGATGTATTGGTTGTCTAGGGTACCGTTATGCCTACTGCCTCGGA
B9: Myb.670: shRNA, SEQ ID NO: 145 (also SEQ ID NO: 54) (nucleic acid)
chain: TGCTGTTGACAGTGAGCGACACAACCATTTGAATCCAGAATAGTGAAGCCACAGATGTATTCTGGATTCAAATGGTTGTGCTGCCTACTGCCTCGGA
B10: Kit.2021: neutral control shRNA, SEQ ID NO: 195 (nucleic acid)
chain: TGCTGTTGACAGTGAGCGACACCCTGGTCATTACAGAATATAGTGAAGCCACAGATGTATATTCTGTAATGACCAGGGTGGTGCCTACTGCCTCGGA
B11: Rpa1.1620: shRNA, SEQ ID NO: 175 (also SEQ ID NO: 57) (nucleic acid)
chain: TGCTGTTGACAGTGAGCGCCCGCATGATCTTATCGGCAAATAGTGAAGCCACAGATGTATTTGCCGATAAGATCATGCGGTTGCCTACTGCCTCGGA
B12: Lin28.2180: neutral control shRNA, SEQ ID NO: 198 (nucleic acid)
chain: TGCTGTTGACAGTGAGCGCAGCGTGATGGTTGATAGCTAATAGTGAAGCCACAGATGTATTAGCTATCAACCATCACGCTATGCCTACTGCCTCGGA
B13: Cdc42ep3.1922: shRNA, SEQ ID NO: 104 (nucleic acid)
chain: TGCTGTTGACAGTGAGCGCAACAAGCAAGGTATTACTGTATAGTGAAGCCACAGATGTATACAGTAATACCTTGCTTGTTTTGCCTACTGCCTCGGA
B14: Mn1.2545: neutral control shRNA, SEQ ID NO: 206 (nucleic acid)
chain: TGCTGTTGACAGTGAGCGCCAGCGCGGTTGCAGCCGGTAATAGTGAAGCCACAGATGTATTACCGGCTGCAACCGCGCTGTTGCCTACTGCCTCGGA
B15: Bcl2.2169: shRNA, SEQ ID NO: 96 (also SEQ ID NO: 42) (nucleic acid)
chain: TGCTGTTGACAGTGAGCGACAGTAGAAATTATATGCATTATAGTGAAGCCACAGATGTATAATGCATATAATTTCTACTGCTGCCTACTGCCTCGGA
B16: Myc.1891: shRNA, SEQ ID NO: 147 (nucleic acid)
chain: TGCTGTTGACAGTGAGCGCACGACGAGAACAGTTGAAACATAGTGAAGCCACAGATGTATGTTTCAACTGTTCTCGTCGTTTGCCTACTGCCTCGGA
B17: Myb.2652: shRNA, SEQ ID NO: 144 (also SEQ ID NO: 53) (nucleic acid)
chain: TGCTGTTGACAGTGAGCGCCCCAAGTAATACTTAATGCAATAGTGAAGCCACAGATGTATTGCATTAAGTATTACTTGGGATGCCTACTGCCTCGGA
B18: Nln.1429: shRNA, SEQ ID NO: 151 (nucleic acid)
chain: TGCTGTTGACAGTGAGCGAAAGGATAAAGCTACTGGAGAATAGTGAAGCCACAGATGTATTCTCCAGTAGCTTTATCCTTCTGCCTACTGCCTCGGA
B19: Myb.2572: shRNA, SEQ ID NO: 143 (also SEQ ID NO: 52) (nucleic acid)
chain: TGCTGTTGACAGTGAGCGCTCCATGTATCTCAGTCACTAATAGTGAAGCCACAGATGTATTAGTGACTGAGATACATGGAATGCCTACTGCCTCGGA
B20: Map2k1.1200: neutral control shRNA, SEQ ID NO: 203 (nucleic acid)
chain: TGCTGTTGACAGTGAGCGAGCCTCTCAGCTCATATGGAATTAGTGAAGCCACAGATGTAATTCCATATGAGCTGAGAGGCCTGCCTACTGCCTCGGA
B21: Kit.4813: neutral control shRNA, SEQ ID NO: 197 (nucleic acid)
chain: TGCTGTTGACAGTGAGCGATTGGATATTCTTGAAAGTTTATAGTGAAGCCACAGATGTATAAACTTTCAAGAATATCCAAGTGCCTACTGCCTCGGA
B22: Pcna.1186: shRNA, SEQ ID NO: 159 (nucleic acid)
chain: TGCTGTTGACAGTGAGCGAATCAATGATCTTGACGCTAAATAGTGAAGCCACAGATGTATTTAGCGTCAAGATCATTGATGTGCCTACTGCCTCGGA
B23: Pcna.566: shRNA, SEQ ID NO: 160 (nucleic acid)
chain: TGCTGTTGACAGTGAGCGATCGGGTGAATTTGCACGTATATAGTGAAGCCACAGATGTATATACGTGCAAATTCACCCGACTGCCTACTGCCTCGGA
B24: Bcl2.1422: shRNA, SEQ ID NO: 95 (also SEQ ID NO: 41) (nucleic acid)
chain: TGCTGTTGACAGTGAGCGACCGGGAGAACAGGGTATGATATAGTGAAGCCACAGATGTATATCATACCCTGTTCTCCCGGCTGCCTACTGCCTCGGA
B25: Lin28.2186: neutral control shRNA, SEQ ID NO: 199 (nucleic acid)
chain: TGCTGTTGACAGTGAGCGAATGGTTGATAGCTAAAGGAAATAGTGAAGCCACAGATGTATTTCCTTTAGCTATCAACCATCTGCCTACTGCCTCGGA
B26: Mcl1.2018: shRNA, SEQ ID NO: 140 (also SEQ ID NO: 45) (nucleic acid)
chain: TGCTGTTGACAGTGAGCGCGGACTGGTTATAGATTTATAATAGTGAAGCCACAGATGTATTATAAATCTATAACCAGTCCATGCCTACTGCCTCGGA
B27: Rpa3.561: shRNA, SEQ ID NO: 176 (also SEQ ID NO: 61) (nucleic acid)
chain: TGCTGTTGACAGTGAGCGCAAAAGTGATACTTCAATATATTAGTGAAGCCACAGATGTAATATATTGAAGTATCACTTTTATGCCTACTGCCTCGGA
B28: Mcl1.1334: shRNA, SEQ ID NO: 139 (also SEQ ID NO: 43) (nucleic acid)
chain: TGCTGTTGACAGTGAGCGAAAGAGTCACTGTCTGAATGAATAGTGAAGCCACAGATGTATTCATTCAGACAGTGACTCTTCTGCCTACTGCCTCGGA
B29: Map2k1.2337: neutral control shRNA, SEQ ID NO: 204 (nucleic acid)
chain: TGCTGTTGACAGTGAGCGCCAAGATGTTTATCAAATCTAATAGTGAAGCCACAGATGTATTAGATTTGATAAACATCTTGATGCCTACTGCCTCGGA

System: immortalized murine embryonic fibroblasts (Mef)
Test: Pooled negative selection RNAi screening (deep sequencing)
Assay type: cell-based
Conditions: deep sequencing reads, on dox compared to initial representation
Method in brief: (§1)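 A pool of 1230 tet-regulated shRNAs (TRMPV-type) was retrovirally transduced at mostly single copy and ~1000-fold representation into tet-on MLL/AF9+Nras AML cells or immortalized murine embryonic fibroblasts, then cultured on or off doxycycline. shRNA-expressing cells were FACS-sorted, and shRNA representation was quantified by PCR and deep sequencing of genomic DNA, with depletion on dox compared against t0 and off dox.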

First: B1
Second: B2
The “Fold depletion in Mef” value of the first is higher: 3.83 Fold for the first, 0.52 Fold for the second.

Going from B3 to B4, the “Fold depletion in Mef” value rises from 0.69 Fold to 1.10 Fold.

Going from B5 to B6, the “Fold depletion in Mef” value falls from 0.98 Fold to 0.89 Fold.

First: B7
Second: B8
The “Fold depletion in Mef” value of the first is higher: 11.70 Fold for the first, 0.77 Fold for the second.

Compared with B9, B10 is higher in “Fold depletion in Mef” value: 1.28 Fold for the first, 1.61 Fold for the second.

Going from B11 to B12, the “Fold depletion in Mef” value falls from 10.23 Fold to 0.80 Fold.

First: B13
Second: B14
The “Fold depletion in Mef” value of the first is higher: 0.38 Fold for the first, 0.29 Fold for the second.

Compared with B15, B16 is higher in “Fold depletion in Mef” value: 1.62 Fold for the first, 4.62 Fold for the second.

Going from B17 to B18, the “Fold depletion in Mef” value rises from 1.14 Fold to 1.61 Fold.

Going from B19 to B20, the “Fold depletion in Mef” value rises from 0.92 Fold to 1.24 Fold.

Compared with B21, B22 is higher in “Fold depletion in Mef” value: 0.84 Fold for the first, 11.42 Fold for the second.

First: B23
Second: B24
The “Fold depletion in Mef” value of the first is higher: 6.15 Fold for the first, 2.71 Fold for the second.

Compared with B25, B26 is higher in “Fold depletion in Mef” value: 1.55 Fold for the first, 3.02 Fold for the second.

Going from B27 to B28, the “Fold depletion in Mef” value falls from 10.63 Fold to 3.00 Fold.

In the case of B29, the “Fold depletion in Mef” value is reported as 0.68 Fold.

System: tet-on competent MLL/AF9+Nras AML
Test: as above
Assay type: cell-based, mouse
Conditions: deep sequencing reads, On Dox compared to T0
Method in brief: as §1

Going from B1 to B2, the “Fold depletion in AML” value falls from 8.48 Fold to 1.22 Fold.

Compared with B3, B4 is lower in “Fold depletion in AML” value: 1.19 Fold for the first, 0.22 Fold for the second.

First: B5
Second: B6
The “Fold depletion in AML” value of the first is higher: 12.28 Fold for the first, 1.37 Fold for the second.

Compared with B7, B8 is lower in “Fold depletion in AML” value: 9.19 Fold for the first, 1.94 Fold for the second.

Going from B9 to B10, the “Fold depletion in AML” value falls from 26.46 Fold to 1.92 Fold.

First: B12
Second: B13
The “Fold depletion in AML” value of the first is lower: 1.15 Fold for the first, 315.30 Fold for the second.

Going from B14 to B15, the “Fold depletion in AML” value rises from 0.81 Fold to 12.61 Fold.

Going from B16 to B17, the “Fold depletion in AML” value rises from 9.05 Fold to 15.46 Fold.

Compared with B18, B19 is higher in “Fold depletion in AML” value: 8.03 Fold for the first, 67.47 Fold for the second.

Compared with B20, B21 is lower in “Fold depletion in AML” value: 2.26 Fold for the first, 0.81 Fold for the second.

Compared with B22, B23 is lower in “Fold depletion in AML” value: 51.94 Fold for the first, 9.89 Fold for the second.

First: B25
Second: B26
The “Fold depletion in AML” value of the first is lower: 1.43 Fold for the first, 11.48 Fold for the second.

Going from B27 to B28, the “Fold depletion in AML” value rises from 8.81 Fold to 104.03 Fold.

In the case of B29, the “Fold depletion in AML” value is reported as 0.24 Fold.

B11 was tested, and the “Fold depletion in AML” value was 2,891.47 Fold.
In the case of B24, the “Fold depletion in AML” value is reported as 1,686.19 Fold.
